This is an account of results in paper PMC3748285 (Cell reports, 2013).

Data set [1] has as its target LTag131-627 V350E/P417D (Simian virus 40). The data set can be described thus: SEC + other: SDS-PAGE gel quantification.
Data set [2] concerns the target SV40 large T antigen LTag131-627 (Simian virus 40, UniProt P03070 131-627). Put plainly: X-ray crystallography.
The data set “SEC” concerns the molecule itself. Put plainly: SEC.
The data set “crystal structure” concerns the molecule itself. The data set can be described thus: crystal structure.

With “LTag131-627 L286Dt/R567E (domain or fragment)”, the stoichiometry N in data set [1] was 1 mut1:mut2.

B1: EP-half ori 32 bp (dsDNA)
DNA 1: ACTACTTCTGGAATAGCTCAGAGGCCGAGGCG
DNA 2: CGCCTCGGCCTCTGAGCTATTCCAGAAGTAGT
On to B1, for which, in data set [2], the binding result was “binds”.

B2: SV40 large tumor antigen LTag131-627 (wild type) (domain or fragment)
chain: KVEDPKDFPSELLSFLSHAVFSNRTLACFAIYTTKEKAALLYKKIMEKYSVTFISRHNSYNHNILFFLTPHRHRVSAINNYAQKLCTFSFLICKGVNKEYLMYSALTRDPFSVIEESLPGGLKEHDFNPEEAEETKQVSWKLVTEYAMETKCDDVLLLLGMYLEFQYSFEMCLKCIKKEQPSHYKYHEKHYANAAIFADSKNQKTICQQAVDTVLAKKRVDSLQLTREQMLTNRFNDLLDRMDIMFGSTGSADIEEWMAGVAWLHCLLPKMDSVVYDFLKCMVYNIPKKRYWLFKGPIDSGKTTLAAALLELCGGKALNVNLPLDRLNFELGVAIDQFLVVFEDVKGTGGESRDLPSGQGINNLDNLRDYLDGSVKVNLEKKHLNKRTQIFPPGIVTMNEYSVPKTLQARFVKQIDFRPKDYLKHCLERSEFLLEKRIIQSGIALLLMLIWYRPVAEFAQSIQSRIVEWKERLDKEFSLSVYQKMKFNVAMGIGVLD
On to B2, for which the “stoichiometry N” value was 6 in the data set “SEC” and 2 in the data set “crystal structure”.
